In publication PMC3337841:

Target: FRET-GATE-16 (human) (UniProt P60520)
Sequence (P60520 whole entry): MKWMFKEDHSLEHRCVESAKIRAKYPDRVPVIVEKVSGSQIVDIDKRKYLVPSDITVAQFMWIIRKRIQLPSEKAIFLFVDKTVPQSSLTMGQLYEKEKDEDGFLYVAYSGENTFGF

Atg4A (from UniProt Q8WYN0 1-398) (enzyme)
catalytic efficiency (kcat/KM) of cleavage, FRET-based assay, 37°C, Buffer B: 1310 mol^−1S^−1
